This is an account of results in US20220153819A1 (Regeneron, published 2022).

“And” between values parts separate entries of the source, which are not always exact repeats. Identical values can stand only once. Like-named read-outs stand apart in the source and are kept apart here.

For assay [1], the target named is T1, human complement component 1q (C1q) (human, UniProt P02745 23-245; P02746 28-253; P02747 29-245).
Assay [2] concerns the target T1, human complement component 1q (C1q). This is another data set of the same source.
The target in assay [3] is T2, hGITR.mmh (human).
T2 chain: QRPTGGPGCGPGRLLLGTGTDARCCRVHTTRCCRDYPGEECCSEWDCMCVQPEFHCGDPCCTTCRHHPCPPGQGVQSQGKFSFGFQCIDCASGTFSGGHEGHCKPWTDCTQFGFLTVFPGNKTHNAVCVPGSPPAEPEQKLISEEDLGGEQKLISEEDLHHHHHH

Assay [4] deals with T3, biotinylated human C1q (human, UniProt P02745 23-245; P02746 28-253; P02747 29-245).
T3 sequence (P02745 23-245, chain 1 of 3): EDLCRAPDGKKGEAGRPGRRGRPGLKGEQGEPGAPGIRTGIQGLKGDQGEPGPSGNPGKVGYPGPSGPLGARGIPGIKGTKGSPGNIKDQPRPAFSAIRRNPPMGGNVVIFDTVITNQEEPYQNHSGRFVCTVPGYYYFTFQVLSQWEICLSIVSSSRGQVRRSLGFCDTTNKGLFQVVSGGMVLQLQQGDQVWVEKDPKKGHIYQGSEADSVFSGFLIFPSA
T3 sequence (P02746 28-253, chain 2 of 3): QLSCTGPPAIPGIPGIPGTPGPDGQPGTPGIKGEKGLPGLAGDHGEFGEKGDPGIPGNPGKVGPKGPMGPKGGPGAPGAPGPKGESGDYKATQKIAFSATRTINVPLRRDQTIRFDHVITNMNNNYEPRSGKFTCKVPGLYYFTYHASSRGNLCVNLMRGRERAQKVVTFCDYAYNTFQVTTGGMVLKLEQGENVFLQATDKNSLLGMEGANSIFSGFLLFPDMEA
T3 sequence (P02747 29-245, chain 3 of 3): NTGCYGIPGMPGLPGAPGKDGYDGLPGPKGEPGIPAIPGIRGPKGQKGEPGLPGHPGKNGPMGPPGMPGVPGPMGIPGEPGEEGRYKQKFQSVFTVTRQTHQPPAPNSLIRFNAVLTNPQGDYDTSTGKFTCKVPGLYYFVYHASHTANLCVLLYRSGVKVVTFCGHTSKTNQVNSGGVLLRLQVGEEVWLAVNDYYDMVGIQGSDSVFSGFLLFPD
The target of assay [5] is T3, biotinylated human C1q. The source holds these as a separate data set.
The target in assay [6] is T2, hGITR.mmh.
The target in assay [7] is T2, hGITR.mmh.
Assay [8] deals with T4, human GITR on Jurkat/hGITR/hCD20 cells (human, UniProt Q9Y5U5 26-241).
T4 sequence (looked up): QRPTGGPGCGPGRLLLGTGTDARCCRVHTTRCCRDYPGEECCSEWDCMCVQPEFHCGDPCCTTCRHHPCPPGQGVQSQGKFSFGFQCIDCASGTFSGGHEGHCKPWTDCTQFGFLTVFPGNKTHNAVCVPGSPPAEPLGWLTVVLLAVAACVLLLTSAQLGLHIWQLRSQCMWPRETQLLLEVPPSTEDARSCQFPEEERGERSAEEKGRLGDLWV

In assay [9] the target is T5, CD20 on Raji cells (human, UniProt P11836 1-297).
T5 sequence (looked up): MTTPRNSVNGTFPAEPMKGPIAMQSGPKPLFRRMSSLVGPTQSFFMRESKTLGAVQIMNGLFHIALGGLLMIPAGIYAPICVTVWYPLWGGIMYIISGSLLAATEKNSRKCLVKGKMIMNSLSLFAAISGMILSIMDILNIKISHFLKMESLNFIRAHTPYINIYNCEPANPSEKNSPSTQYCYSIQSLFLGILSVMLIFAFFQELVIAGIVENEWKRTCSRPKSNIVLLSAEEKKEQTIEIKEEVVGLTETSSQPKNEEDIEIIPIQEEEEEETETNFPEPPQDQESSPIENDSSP

Assay [10] deals with T5, CD20 on Raji cells. The source holds these as a separate data set.
The target of assay [11] is T6, hemagglutinin (HA) on A/Puerto Rico/08/1934 (H1N1)-infected MDCK cells (Influenza A virus A/Puerto Rico/08/1934 …, UniProt P03452 18-565). Kind of assay: cell-based or functional assay.
T6 sequence (P03452 18-565): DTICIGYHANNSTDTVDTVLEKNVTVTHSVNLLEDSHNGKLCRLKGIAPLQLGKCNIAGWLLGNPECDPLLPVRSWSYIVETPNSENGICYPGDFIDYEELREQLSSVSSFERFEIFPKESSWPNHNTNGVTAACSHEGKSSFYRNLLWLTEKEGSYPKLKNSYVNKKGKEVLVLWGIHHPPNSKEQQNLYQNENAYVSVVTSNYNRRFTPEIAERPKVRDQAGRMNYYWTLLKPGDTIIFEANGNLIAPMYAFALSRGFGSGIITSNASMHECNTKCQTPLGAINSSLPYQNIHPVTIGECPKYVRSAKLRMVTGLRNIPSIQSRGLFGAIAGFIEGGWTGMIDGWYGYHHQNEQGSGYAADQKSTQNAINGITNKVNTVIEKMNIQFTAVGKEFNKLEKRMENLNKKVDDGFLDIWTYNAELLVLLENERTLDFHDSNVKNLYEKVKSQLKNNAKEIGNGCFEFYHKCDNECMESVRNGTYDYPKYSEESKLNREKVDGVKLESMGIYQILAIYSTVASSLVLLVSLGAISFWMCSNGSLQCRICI
Assay [12] concerns the target T3, biotinylated human C1q.
In assay [13] the target is T3, biotinylated human C1q. The source holds these as a separate data set.
The target of assay [14] is T6, hemagglutinin (HA) on A/Puerto …. Kind of assay: cell ELISA on fixed A/Puerto Rico/08/1934 (H1N1)-infected MDCK cells. For orientation: ELISA stands for enzyme-linked immunosorbent assay.
For assay [15], the target named is T1, human complement component 1q (C1q). Kind of assay: SPR (Biacore T200), 25C; bsAb captured via anti-human F(ab')2, hC1q injected. On the technique in general: SPR reads the build-up and loss of mass on a sensor chip optically.
The target is the same in assay [16]. The experiment in a line: SPR (Biacore T200), 37C; bsAb captured via anti-human F(ab')2, hC1q injected.
Assay [17] has the same target. This is another data set of the same source.
Another assay deals with T7, IsdA.6×(His) (Staphylococcus aureus, UniProt A6QG31 47-316).
T7 sequence: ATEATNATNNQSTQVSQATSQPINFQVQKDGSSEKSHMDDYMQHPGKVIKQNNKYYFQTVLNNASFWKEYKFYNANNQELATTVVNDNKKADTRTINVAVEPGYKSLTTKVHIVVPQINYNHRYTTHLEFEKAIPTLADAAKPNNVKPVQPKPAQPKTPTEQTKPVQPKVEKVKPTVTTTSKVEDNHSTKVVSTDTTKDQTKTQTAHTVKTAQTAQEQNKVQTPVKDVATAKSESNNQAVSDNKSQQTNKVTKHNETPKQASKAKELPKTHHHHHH
Kind of assay: SPR (Biacore), 37C; IsdA.6xHis captured, bsAb injected.

T1 sequence (P02745 23-245, chain 1 of 3): as the sequence (P02745 23-245, chain 1 of 3) above
T1 sequence (P02746 28-253, chain 2 of 3): as the sequence (P02746 28-253, chain 2 of 3) above
T1 sequence (P02747 29-245, chain 3 of 3): as the sequence (P02747 29-245, chain 3 of 3) above

B1: REGN6546, anti-GITR x anti-C1q bispecific antibody (bispecific antibody, V domains shown)
VH 1: QVQLQESGPGLVKPSETLSLTCIVSGGSISGYFWNWIRQPPGKGLEWIGYIYYSGTTIYNPSLKSRFTISLDTSKNQFSLKLTSVTAADTAVYYCARESYNPSPRYFDHWGQGTLVTVSS
VH 2: EVQLVQSGAEVKKPGESLKIFCKGSGYSFINDWIGWVRQMPGKGLEWMGLIFPGDSDTRYSPVFQGHVTISADQSIDTAYLQWNSLKASDTAIYYCAVLRYWHFAIWGRGTLVTVSS
VL: not shown
As to B1, the dissociation constant Kd in assay [1] is 0.753 nM; in [2], 4.63 nM; with hGITR.mmh [3] it was 7.52 nM and 20.9 nM; with biotinylated human C1q [4] it was 1880 nM; with biotinylated human C1q [5] it was 8540 nM; with hGITR.mmh [6], 4.61 nM. In the assay with hGITR.mmh [7], this molecule yielded a dissociation constant (Kd) of 16 nM. For the same molecule, the koff in assay [1] came to 0.00409 s⁻¹; in assay [2] it was 0.0227 s⁻¹; with biotinylated human C1q [4], 0.413 s⁻¹; with biotinylated human C1q [5], 0.687 s⁻¹; with hGITR.mmh [6], 0.0031 s⁻¹; with hGITR.mmh [7], 0.019 s⁻¹. The on-rate constant (kon) in assay [1] was 5.43e+06 M⁻¹ s⁻¹; in [2], 4.9e+06 M⁻¹ s⁻¹; with hGITR.mmh [3], 453000 M⁻¹ s⁻¹ and 543000 M⁻¹ s⁻¹; in the assay with biotinylated human C1q [4], 220000 M⁻¹ s⁻¹; with biotinylated human C1q [5] it was 80500 M⁻¹ s⁻¹; with hGITR.mmh [6], 673000 M⁻¹ s⁻¹. The same molecule returned an on-rate (kon) with hGITR.mmh [7] of 1.19e+06 M⁻¹ s⁻¹. The concentration giving a half-maximal response (EC50) in [8] turned out to be 23.5 nM.

B2: REGN5372, anti-GITR bivalent hIgG1 antibody (antibody, V domains shown)
VH: B1 VH 1
VL: not shown
The molecule B2 had an EC50 in [8] of 3.07 nM.

B3: mAb14303, anti-CD20 parental bivalent hIgG1 antibody (antibody, V domains shown)
VH: QVHLVESGGGVVQPGRSLRLSCSVSGLTFNSYGMHWVRQAPGKGLEWVTMISYDGSDKYYLDSVKGRFTISRDNSKNILYLQINSLRPEDTAVYYCVNWDNWRGNFDYWGQGTLVTVSS
VL: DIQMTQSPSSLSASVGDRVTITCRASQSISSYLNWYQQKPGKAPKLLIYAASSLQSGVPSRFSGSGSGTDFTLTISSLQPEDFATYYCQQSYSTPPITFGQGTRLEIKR
Regarding B3, the EC50 with CD20 on Raji cells [9] and with CD20 on Raji cells [10] was 6.03 nM throughout.

B4: Rituximab (antibody, V domains shown)
VH: QVQLQQPGAELVKPGASVKMSCKASGYTFTSYNMHWVKQTPGRGLEWIGAIYPGNGDTSYNQKFKGKATLTADKSSSTAYMQLSSLTSEDSAVYYCARSTYYGGDWYFNVWGAGTTVTVSA
VL: QIVLSQSPAILSASPGEKVTMTCRASSSVSYIHWFQQKPGSSPKPWIYATSNLASGVPVRFSGSGSGTSYSLTISRVEAEDAATYYCQQWTSNPPTFGGGTKLEIK
On to B4, for which the EC50 with CD20 on Raji cells [9] and in the assay with CD20 on Raji cells [10] was 3.14 nM in each case.

B5: REGN6093, anti-Influenza HA x anti-C1q bispecific antibody (bispecific antibody, V domains shown)
VH 1: QVHLVQSGPEVKKPGSSVKVSCKASGVTFISHAISWVRQAPGQGLEWVGGIIAIFGTTNYAQKFQGRVTVTTDKSTNTVYMELSRLRSEDTAIYYCARGETYYEGNFDFWGQGTLVTVSS
VH 2: EVQLVESGGGVVQPGGSLRLSCAASGFSLDDYAMHWVRQTPGKGLEWVSLISGDGSRTSYADSVKGRFTISRDNSKNSLYLKMNSLRTEDTALYYCTKDPHNSNWFDPWGQGTLVTVSS
VL: not shown
notes: also called FluA group 1 x C1q bispecific; anti-HA x anti-C1q
B5: in assay [11], the “CDC EC50 (H1N1-infected MDCK cells)” value worked out at 10.5 nM and the “Maximum percent specific lysis (CDC of H1N1-infected MDCK cells)” value was 30%. In the assay with biotinylated human C1q [12], this molecule yielded a dissociation constant (Kd) of 327 nM, an off-rate (koff) of 0.0309 s⁻¹, a kon of 94600 M⁻¹ s⁻¹ and a t1/2 of 0.37 min. In the assay with biotinylated human C1q [13], this molecule came in with a dissociation constant (Kd) of 516 nM, a koff of 0.0937 s⁻¹, a kon of 182000 M⁻¹ s⁻¹ and a t1/2 of 0.12 min. For the same molecule, in assay [14], the response was half-maximal at 1.84 nM (EC50) and the “Maximum binding (RLUs)” value turned out to be 849000 RLU. Moreover, in assay [15], binding was put at a Kd of 0.451 nM, the koff worked out at 0.00216 s⁻¹, the kon turned out to be 4.8e+06 M⁻¹ s⁻¹ and the t1/2 is 5.3 min. In assay [16], this molecule yielded a Kd of 1.11 nM, a koff of 0.00401 s⁻¹, a kon of 3.61e+06 M⁻¹ s⁻¹ and a t1/2 of 2.9 min.

B6: REGN5177, anti-CD20 x anti-C1q bispecific antibody (bispecific antibody, V domains shown)
VH 1: B3 VH
VH 2: B5 VH 2
VL: not shown
As to B6, the equilibrium dissociation constant (Kd) amounted to 0.688 nM in assay [1], 0.481 nM in [2] and 436 nM with biotinylated human C1q [4]. For the same molecule, the values for the dissociation rate constant (koff) (in assay [1]; in [2]; in the assay with biotinylated human C1q [4]) were 0.00224 s⁻¹, 0.00499 s⁻¹ and 0.0442 s⁻¹, respectively. Moreover, the kon in [1] came out at 3.26e+06 M⁻¹ s⁻¹; in [2] it was 1.04e+07 M⁻¹ s⁻¹; with biotinylated human C1q [4] it was 101000 M⁻¹ s⁻¹. Moreover, the EC50 with CD20 on Raji cells [9] is 35.6 nM; in the assay with CD20 on Raji cells [10], 35.7 nM.

B7: REGN5553, anti-IsdA x anti-C1q bispecific antibody (bispecific antibody, V domains shown)
VH 1: EVQLVESGGGLVQPGRSLRVSCAASGFTFDDYAMHWVRQIPGKGLEWVSGIRWNSDTIGYADSVKGRFTISRDNAKNFLYLQMNSLRTEDTALYYCVKDMRVRGIIMYGMDVWGQGTTVTVSS
VH 2: B5 VH 2
VL: not shown
notes: also called bsC1q × IsdA; bs hC1q × IsdA
As to B7, in [17], binding was put at a Kd of 1.3 nM, the off-rate (koff) was determined as 0.00469 s⁻¹ and the on-rate (kon) worked out at 3.62e+06 M⁻¹ s⁻¹. Further, in the assay with IsdA.6×(His), the Kd was found to be 3.62 nM, the T1/2 was 11.8 min, the dissociation rate constant (koff) was 0.000977 s⁻¹ and the on-rate constant (kon) came out at 270000 M⁻¹ s⁻¹.

B8: REGN6545, anti-GITR x anti-C1q bispecific antibody (bispecific antibody, V domains shown)
VH 1: B1 VH 1
VH 2: B5 VH 2
VL: not shown
Take B8: the Kd in assay [1] amounted to 0.528 nM; in [2], 1.74 nM; with biotinylated human C1q [4], 1860 nM; with biotinylated human C1q [5], 3330 nM; with hGITR.mmh [6] it was 3.3 nM; with hGITR.mmh [7], 7.38 nM. In addition, the koff was 0.00162 s⁻¹ in assay [1]; 0.00582 s⁻¹ in [2]; 0.449 s⁻¹ with biotinylated human C1q [4]; 0.658 s⁻¹ with biotinylated human C1q [5]; 0.00229 s⁻¹ with hGITR.mmh [6]; 0.00795 s⁻¹ with hGITR.mmh [7]. In addition, the kon in assay [1] was 3.07e+06 M⁻¹ s⁻¹; in assay [2], 3.34e+06 M⁻¹ s⁻¹; with hGITR.mmh [3], 330000 M⁻¹ s⁻¹ and 274000 M⁻¹ s⁻¹; in the assay with biotinylated human C1q [4] it was 241000 M⁻¹ s⁻¹; with biotinylated human C1q [5] it was 198000 M⁻¹ s⁻¹; in the assay with hGITR.mmh [6] it was 693000 M⁻¹ s⁻¹. This molecule also gave a kon in the assay with hGITR.mmh [7] of 1.08e+06 M⁻¹ s⁻¹. This molecule also had an EC50 in assay [8] of 31 nM.

One may read the Kd as the concentration at which binding is half-saturated. The term koff denotes a measure of how fast the partners let go of each other. As usually defined, the kon is a measure of how fast the partners come together. Higher therefore signals fast association. As usually defined, the EC50 is the concentration needed to bring the measured effect to its halfway point.
